Assay: VLP assembly induced by NaCl, quantified by size-exclusion chromatography
Format: physicochemical
Procedure: Improved VLP purification method. HepBc proteins were expressed using standard cell-free protein synthesis reactions as described above. The improved purification strategy first used Sephadex G25 columns to exchange the samples into a 50 mM Tris, 25 mM Imidazole, 0.1% Tween-20, pH 7.4 buffer solution. Insolubles were removed using centrifugation at 10 k×g for 15 min before loading the soluble fraction onto the Ni-NTA column. After loading, the Ni-NTA column was washed with 4 column volumes (CV) of 50 mM Tris, 25 mM Imidazole, 0.1% Tween-20, pH 7.4 and then eluted with 50 mM Tris, 250 mM Imidazole, 0.1% Tween-20, pH 7.4 (5CV total). […] Assembled VLPs were quantified and purified by applying 200 μL of the samples to 2.2 mL Sepharose 6 Fast Flow size-exclusion chromatographic resin, eluting 24×150 μL fractions. Protein concentration in each fraction was determined by measuring the radioactivity using liquid scintillation counting. […]
VLP purification method. […] Assembled VLPs were quantified and purified by applying 200 μL of the samples to 2.2 mL Sepharose 6 Fast Flow size-exclusion column, applying the assembly buffer, and collecting 24×150 […]. Protein concentration in each fraction was determined by measuring the radioactivity using liquid scintillation counting. […]

## wild-type: Wild-type truncated Hepatitis B core protein HBc149, SEQ ID NO: 1
  NaCl concentration (ionic strength) required for VLP assembly: 0.5 M

B1: HP spike transplant: HepBc with HP series of amino acid changes in the spike region; HBc(HP) is SEQ ID NO: 3 (protein)
chain: MDIDPYKEFGATVELLSFLPSDFFPSVRCLLDTAAALYRDALESPEHCSPHHTALRQAVSCWREVTDFGDWVGNNMQDQAARDLVVNYVNANIGLKIRQLLWFHISCLTFGRETVLEYLVSFGVWICTPPAYRPPNAPILSTLPETTVV
  NaCl concentration (ionic strength) required for VLP assembly: 1.5 M
